Experimental data as given in US6537972B1, “Compositions and methods for inhibiting human immunodeficiency virus infection by down-regulating human cellular genes” (Subsidiary No. 3., Inc., priority 1997, dated 2003).

Experiments:
[1] = test system: latent HIV provirus in OM10.1 cells; test: Inhibition of TNF-α induction of latent HIV provirus in OM10.1 cells (CD4 / p24 by flow cytometry); type: cell-based, HIV-1
Experimental: OM10.1 cells were cultured in RPMI 1640 glucose-free media prior to and during incubation with NADH dehydrogenase inhibitors and TNF-α induction. The inhibitors were added to the cells followed by TNF-α induction 1-2 hours later. The expression of CD4 by the cells was assessed by anti-CD4 antibody staining and flow cytometry after 24 hour incubation at 37° C.

[2] = test system: HIV-1IIIB; test: GSE selection by prevention of productive infection of CEM-ss cells by HIV-1IIIB; type: cell-based; details: GSE from HeLa RFE library, selected in CEM-ss cells
Experimental: Additionally, a normalized RFE library made from HeLa cells was transferred into CEM-ss cells and the neo resistant population was infected with TCID50 of 3000/10^6 cells of HIV-1IIIB. This RFE library was represented by 50×10^6 independent recombinant clones. Four and seven days after infection, a purified anti-CD4 monoclonal antibody, L77 (Becton Dickinson), was added at 5 μg/ml to prevent syncytia formation. Syncytia formation is thought to be prevented by blocking the interaction between gp120 expressed on the surface of an infected cell and CD4 on the surface of an uninfected cell. […] At 10-12 days after infection, CD4^+, p24^− cell population representing uninfected cells were sorted. Genomic DNA from the CD4^+, p24^− cells was purified and used for PCR amplification of inserts with the vector-derived primers. The amplified mixture was digested with EcoRI and BamHI and cloned back into the retroviral vector. The selection was repeated for additional rounds.
(§1) In order to determine p24 expression in HIV-infected cells, the cells were first washed twice with Assay Buffer. About 10^6 cells were suspended in 100 μl Assay Buffer, mixed with 2 ml of Ortho PermeaFix Solution (Ortho Diagnostics), and incubated for 40 min. at room temperature. After centrifugation at 1200 rpm for 4 min. at 4° C., the cells were resuspended in 2 ml Wash Buffer (500 ml PBS, 25 ml fetal bovine serum, 1.5% bovine serum albumin and 0.0055% EDTA) for 10 min. at room temperature. After centrifugation, the cells were resuspended in 50 μl Wash Buffer and mixed with 1:500 dilution of an IgG22, antibody for 20 min. at 4° C., followed by incubation with 5-10 μl of anti-p24 antibody (KC57-FITC, Coulter) for 30 min. at 4° C. The cells were then washed twice with Wash Buffer and analyzed by flow cytometry.

[3] = test system: latent HIV-1 provirus in OM10.1 cells; test: GSE selection by maintained CD4 expression in OM10.1 cells after TNF-α induction; type: cell-based; details: GSE from HL-60 RFE library, selected in OM10.1 cells
Experimental: The libraries prepared from HL-60 cells according to the method of Section 6.1.1. supra, were transfected into the packaging cell line, PA317 (ATCC CRL #9078), and converted into retrovirus for infection of OM10.1 cells. Libraries in pLNCX vector were co-cultured and selected with G418. Libraries in pLNGFRM vector were transduced by spinoculation (centrifugation of target cells at 1200 xg for 90 min. in the presence of filtered retroviral supernatant) and selected by FACS sorting of the NGFR^+ population. After selection, the OM10.1 cells harboring the entire RFE library were induced with 10 U/ml of TNF-α at 37° C., and 24 hours later, were stained with an antibody and sorted for CD4 expression. Genomic DNA from the CD4^+ cells was purified and used for PCR amplification of inserts with the vector-derived primers. The amplified mixture was digested with EcoRI and BamHI and cloned back into the retroviral vector. The selection was repeated for additional rounds.
For the immunofluorescent staining of CD4^+ cells for selection, 10^7 cells were washed twice with Assay Buffer (500 ml PBS, 1 ml of 0.5 mM of EDTA at pH 8, 0.5 ml of 10% sodium azide and 10 ml of fetal bovine serum), and resuspended in 500 μl PBS to which 50 μl of anti-CD4 antibody (Q4120 PE, Sigma) was added. After incubation at 4° C. for 30 min., 5 ml of Assay Buffer was added and the cells centrifuged at 1200 rpm for 4 min. The cells were washed twice with Assay Buffer before sorting by FACS. The aforementioned procedure was performed under sterile conditions.
GSEs derived from cDNAs representing expressed human cellular genes were identified and isolated from a RFE library made from HL-60 cells using HIV provirus activation in OM10.1 cells as a read-out. Following transfection of the entire library into a packaging cell line, retrovirus carrying the library was used to infect OM10.1 cells by co-cultivation or spinoculation, and NGFR selection was performed to ensure the retention of the viral vector. When the infected cells were treated with TNF-α, a small number of residual CD4^+ cells were detected by an anti-CD4 antibody and sorted by FACS. The GSEs contained in these cells were recovered by PCR amplification and their nucleotide sequences determined.

[4] = test system: HIV-1SF2; test: Protection of GSE-transduced CEM-ss cells from productive infection with HIV-1SF2 (intracellular p24); type: cell-based; details: HIV-1SF2 at TCID50 of 1000; versus LNGFRM vector control; FIG. 3, 23, 24
Experimental: In Section 6.2, infra, several GSEs were tested for their ability to protect CEM-ss cells from infection with HIV-1 strain SF2. Uninfected cells were transduced with a retroviral construct containing either vector DNA or a GSE polynucleotide. Non-transduced cells were eliminated by selection of NGFR^+ cells by an antibody or by exposure to the selection agent, G-418. The percentage of p24^+ cells was determined at specific time points post infection.
as §1
A total of twenty GSEs were isolated by the two aforementioned selection strategies using OM10.1 and CEM-ss cells. […]

Molecule	suppression of HIV infection by the GSE [2]	other results
CCC1(CCC(C)C)C(=O)NC(=O)NC1=O [amytal]		induction of latent HIV provirus in OM10.1 cells (retention of CD4 expression) ([1]; TNF-α-induced OM10.1 cells, 24 hour incubation, FIG. 25, 26): inhibited the induction of latent HIV provirus in OM10.1 cells in a dose-dependent manner; intracellular p24 levels in treated cells ([1]; compared with untreated controls): suppressed intracellular p24 levels
CF-286: GSE; sense, gene encoding human elongation factor 1 alpha (nucleic acid) sense: CAGTTGGGGTGGGTGTCATCAAAGCAGTGGACAAGAAGGCTGCTGGAGCTGGCAAGGTCACCAAGTCTGCCCAGAAAGCTCAGAAGGCTAAATGAATATTATCCCTAATACCTGCCACCCCACTCTTAATCAGTGGTGGAAGAAC	suppresses HIV infection	
CF-302: GSE; antisense, gene encoding CD44 (nucleic acid) antisense: GATCCCTGGGCGCGGGGCAGGGGCCGGCGGAGGACGGGACGAGGATGGCGGACCGAACCTGGCAGAGGCTGGG	suppresses HIV infection	
CF-004: GSE; sense, gene encoding human 2-oxoglutarate dehydrogenase (nucleic acid) sense: GCGCAAAGCACGCGACATGGTGGGGCAGGTGGCCATCACAAGGATTGAGCAGCTGTCGCCATTCCCCTTTGACCTCCTGCTGAAGGAGGTGCAGAAGTACCCCAA	suppresses HIV infection	
CF-025: GSE; antisense, gene for the ND2 subunit of human NADH dehydrogenase (nucleic acid) antisense: GAAGAAGCAGGCCGGATGTCAGAGGGGTGCCTTGGGTAACCTCTGGGACTCAGAAGTGAAAGGGGGCTATTCCTAGTTTTATTGCTATAGCCATTATGATTATTAATGATGAGTAT	suppresses HIV infection	
CF-128: GSE; sense, gene for the ND4 subunit of human NADH dehydrogenase (nucleic acid) sense: TCCTAGTCCTCACAATCATGGCAAGCCAGCGCCACTTATCCAGTGAACCACTATCACGAAAAAAACTCTACCTCTCTATACTAATCTCCCTACAAATCTCCTTAATTATAATATTCACAACCACAGA	suppresses HIV infection	
CF-313: GSE; sense, gene encoding a human protein tyrosine phosphatase (nucleic acid) sense: CATTTTGTTACATAAGGATGACTTTTTTATACAATGGAATAAATTATGGCATTTCTATTGAAATTTCAACGCTTTTGTTTCTTTGGCAACCACAC	suppresses HIV infection	
CF-266: GSE; antisense, gene encoding human eukaryotic initiation factor 4B (nucleic acid) antisense: GCCGTTCTTCTACTTCTCTTTCTCAAGCAGCAGTGTCAACAGGCTTTGCCCCTCCAAAGATAGAAGCAGCTCGAGTGGACTGGGAGGTACTAGCAGA	suppresses HIV infection	
CF-210: GSE; sense, gene encoding human herpesvirus-associated ubiquitin-specific protease (HAUSP) (nucleic acid) sense: GCATTACAAAGAGTGTTCTATGAATTACAGCATAGTGATAAACCTGTAGGAACAAAAAAGTTAACAAAGTCATTTGGGTGGGAAACTTTAGATAGCTTCATGCAACATGATGTT	suppresses HIV infection	
CF-204: GSE; antisense, gene encoding human calnexin (nucleic acid) antisense: GGTTGTCAATCACAGGTCGCCACCAGACACCACATCCAGGAGCTGACTCACATCTAGGGTTGGCAATCTGAGGAGCCTCCCATTCTCCATCCATGTCTTCATCCCAA	suppresses HIV infection	
CF-311: GSE; antisense, gene encoding a human protein tyrosine phosphatase (nucleic acid) antisense: GGGGGCTCTGTTTGGTGGTCTCTCTAGCTGCACTGGTCTATCAAGCTGTTGGCTGGTCTCTCTCTCTGGCTGGGGATC	suppresses HIV infection	
CF-317: GSE; antisense, gene encoding phosphatidyl-inositol 3 kinase (nucleic acid) antisense: CCAAGCTTCCTATCTTAAGCTGGGCGTTGATATCCAGGTCACAACTATAGATGTAGTGAAACTTCTCTGCTTCCCCCATCGCACCGTCTGCAAAGGTACCACC	suppresses HIV infection	
CF-117: GSE; antisense, gene for the ND6 subunit of human NADH dehydrogenase (nucleic acid) antisense: GTGAAAGAGTATGATGGGGTGGTGGTTGTCGTAAACTTTAATAGTGTAGGAAGCTGAATAATTTATAAAGGAGAGGGGACAGGGTTGATTCGGGAGGATC		suppression of HIV replication by the GSE [3]: suppresses HIV activities
CF-273: GSE; sense, gene encoding human eukaryotic initiation factor 3 (nucleic acid) sense: GCTCGTCAGTGTCCACCCCTCCTCGCAACTCCAGGCGCTCCTTTTTCTGCTCCATATAGAGCTCCTGGGCCATTTTCCGGTACTTCCGGAAATCTTCCATCATGGTGCGCCTTC	suppresses HIV infection	
CF-101: GSE; sense, identity with the gene for the ND2 subunit of human NADH dehydrogenase (nucleic acid) sense: CATCAGCCCTTCTTAACATCTACTTCTACCTACGCCTAATCTACTCCACCTCAATCACACTACTCCCCATATCTAACAACGTAAAAATAAAATGACAGTTTGAGCATACAAAACCCACCCCATTCCTCCCCACACTCATCGCC		suppression of HIV replication by the GSE [3]: HIV-suppressive activities
CF-319: GSE; sense, identity with the gene for the ND6 subunit of human NADH dehydrogenase (nucleic acid) sense: GATCCTCCCGAATCAACCCTGACCCCTCTCCTTCATAAATTATTCAGCTTCCTACACTATTAAAGTTTACCACAACCACCACGCCATCATACTCCTTCAC		suppression of HIV replication by the GSE [3]: suppresses HIV replication
CF-315: GSE; antisense of a sequence with identity to the gene for the ND6 subunit of human NADH dehydrogenase (nucleic acid) antisense: AGATCCTATTGGTGCGTGGGCTTTGTATGATTATGGGCGTAGATTAGTAGTAGTTACTGGTTGAACATTGTTTGTTGGTGTATATATTGTAATTGGGATTGCTCGGGGGAATAGGTTATGTGATTAGGAGTAGGG		productive HIV infection of GSE-containing CEM-ss cells (intracellular p24+ cells) [4]: inhibited infection of human T cells by HIV-1SF2; suppression of HIV replication by the GSE [3]: suppresses HIV replication
